Test results reported in patent CN110526968A (UNIV NORTHWEST A&F, dated 2019).

Molecular target: T1, 金黄色葡萄球菌肠毒素B (Staphylococcus aureus, UniProt P01552 28-266)
T1 construct: also called SEB
T1 sequence: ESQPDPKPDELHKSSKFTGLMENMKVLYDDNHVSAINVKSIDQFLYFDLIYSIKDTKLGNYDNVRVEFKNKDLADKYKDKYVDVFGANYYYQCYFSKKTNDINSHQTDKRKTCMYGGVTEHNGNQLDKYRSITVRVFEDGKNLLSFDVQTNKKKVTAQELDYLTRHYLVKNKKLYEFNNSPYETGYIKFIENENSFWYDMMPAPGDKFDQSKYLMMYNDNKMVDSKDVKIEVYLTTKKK
Assay: phage ELISA on coated SEB, HRP anti-M13 detection

B1: 噬菌体克隆B7 (VHH)
VHH: ESGGGLVQAGGSLRLSCKVSGFNFREHALAWFRQAPGKEREGVSCIRGSGDYTTYADSVKGRFTISRDNAQNTLYLQMNSLRPEDTAMYYCAAARYARYYPNNCLDSAEYGYWGQGTLVTVS
notes: also called B7克隆
  binding result: binds
